Results from patent US20230056815A1 (VIELA BIO, published 2023).

T1: FLT3 on RS4;11 cells (human, UniProt P36888 27-993)
T1 construct: whole, on cells; also called cell surface FLT3; CD135
T1 sequence (looked up): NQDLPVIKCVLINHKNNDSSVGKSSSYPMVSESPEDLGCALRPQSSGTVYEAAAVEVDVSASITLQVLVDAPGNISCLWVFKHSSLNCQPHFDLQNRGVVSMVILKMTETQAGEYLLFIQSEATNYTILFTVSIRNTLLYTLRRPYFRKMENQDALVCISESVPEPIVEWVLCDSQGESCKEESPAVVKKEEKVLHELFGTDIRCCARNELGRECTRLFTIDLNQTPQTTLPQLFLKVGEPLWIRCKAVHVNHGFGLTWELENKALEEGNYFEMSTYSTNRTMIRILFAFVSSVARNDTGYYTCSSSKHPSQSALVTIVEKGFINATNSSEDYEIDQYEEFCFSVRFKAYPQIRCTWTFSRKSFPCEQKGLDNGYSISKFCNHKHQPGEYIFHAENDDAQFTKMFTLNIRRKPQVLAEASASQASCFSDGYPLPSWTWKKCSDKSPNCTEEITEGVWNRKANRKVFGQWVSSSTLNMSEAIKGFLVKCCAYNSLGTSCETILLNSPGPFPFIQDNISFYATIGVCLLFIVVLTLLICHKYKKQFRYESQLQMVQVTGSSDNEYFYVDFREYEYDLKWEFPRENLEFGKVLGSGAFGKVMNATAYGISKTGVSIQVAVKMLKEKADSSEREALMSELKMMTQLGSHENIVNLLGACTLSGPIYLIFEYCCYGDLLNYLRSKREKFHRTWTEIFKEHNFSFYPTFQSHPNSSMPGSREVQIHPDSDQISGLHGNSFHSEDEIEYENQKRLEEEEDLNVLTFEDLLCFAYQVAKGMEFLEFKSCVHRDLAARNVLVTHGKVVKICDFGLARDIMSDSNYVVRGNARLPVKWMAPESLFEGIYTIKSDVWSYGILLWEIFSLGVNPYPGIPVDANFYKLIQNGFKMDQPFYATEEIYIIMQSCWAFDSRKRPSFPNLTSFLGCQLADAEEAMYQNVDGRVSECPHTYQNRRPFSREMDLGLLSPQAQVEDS

T2: hFLT3 receptor (human, UniProt P36888 27-541, limits assumed)
T2 construct: The construct is not described
T2 sequence (looked up): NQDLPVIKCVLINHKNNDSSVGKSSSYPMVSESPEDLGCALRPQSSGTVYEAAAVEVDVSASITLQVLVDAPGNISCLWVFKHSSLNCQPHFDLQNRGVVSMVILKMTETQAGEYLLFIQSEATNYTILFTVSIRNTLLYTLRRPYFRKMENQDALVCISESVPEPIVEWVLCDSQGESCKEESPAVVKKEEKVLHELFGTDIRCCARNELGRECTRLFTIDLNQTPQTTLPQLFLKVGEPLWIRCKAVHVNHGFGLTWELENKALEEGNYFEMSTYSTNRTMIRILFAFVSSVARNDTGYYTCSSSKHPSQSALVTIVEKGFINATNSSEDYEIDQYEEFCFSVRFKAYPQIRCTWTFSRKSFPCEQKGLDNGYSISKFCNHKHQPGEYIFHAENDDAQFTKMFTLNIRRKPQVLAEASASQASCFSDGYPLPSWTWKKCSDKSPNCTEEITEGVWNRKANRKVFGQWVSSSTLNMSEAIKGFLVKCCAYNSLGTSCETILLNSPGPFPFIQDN

B1: CAT5D9 Fab (Fab, V domains shown)
VH: QVQLVQSGAEVKKPGSSVKVSCKISGGTFSSYALSWVRQAPGQGLEWMGGIIPVFRTASYAQKFQGRVTITVDESASTGYIELSSLKSEDTATYYCASNNYVWGSYRFWGQGTTVTVSS
VL: NFMLTQPHSVSESPGKTVTISCTRTSGNIAGYFVQWYQQRPGSSPTTVIYEDYQRPSGVPDRFSGSIDRSSNSASLTISGLKPDDEADYYCQSYDDTSQGVFGAGTKVTVL
notes: also called 5D9 parent
B2: human soluble FLT3L (recombinant huFLT3L) (ligand, UniProt P49771 27-184, looked up)
chain: TQDCSFQHSPISSDFAVKIRELSDYLLQDYPVTVASNLQDEELCGGLWRLVLAQRWMERLKTVAGSKMQGLLERVNTEIHFVTKCAFQPPPSCLRFVQTNISRLLQETSEQLVALKPWITRQNFSRCLELQCQPDSSTLPPPWSPRPLEATAPTAPQP
notes: extracellular domain; also called rhuFLT3L; hFLT3L

Experiments:
[1] = target: T3, cynomolgus monkey soluble FLT3L (cynomolgus monkey); experiment: Biacore, Fab
T3 construct: extracellular domain; also called cyno sFLT3L; cyno FLT3L

[2] = target: B2; experiment: Biacore, Fab
[3] = target: T3, cynomolgus monkey soluble FLT3L; experiment: Biacore, Fab, kinetic (koff/kon)
[4] = target: B2; experiment: Biacore, Fab, kinetic (koff/kon)
[5] = target: T3, cynomolgus monkey soluble FLT3L; experiment: Biacore, Fab, steady-state
[6] = target: B2; experiment: Biacore, Fab, steady-state
[7] = target: T3, cynomolgus monkey soluble FLT3L; experiment: Biacore, Fab; remark: listed apart in the source
[8] = target: B2; experiment: Biacore, Fab; remark: listed apart in the source
[9] = target: B2; experiment: Biacore
FLT3 on RS4;11 cells [10] = target: T1, FLT3 on RS4;11 cells; experiment: flow cytometry: biotinylated rhuFLT3L on RS4;11 cells, detected with BV421-streptavidin
FLT3 on RS4;11 cells [11] = target: T1, FLT3 on RS4;11 cells; experiment: cell-based or functional assay
hFLT3 receptor = target: T2, hFLT3 receptor; experiment: Biacore

Binder: B1
- fold KD against the remaining lead antibodies [1]: > 50 fold
- fold KD against the remaining lead antibodies [2]: > 50 fold
- Kd [3]: 1.16 µM
- Kd [4]: 1.16 µM
- Kd [5]: 1.61 µM
- Kd [6]: 1.59 µM
- koff [7]: 0.0707 s⁻¹
- kon [7]: 61000 M⁻¹ s⁻¹
- koff [8]: 0.0707 s⁻¹
- kon [8]: 61000 M⁻¹ s⁻¹
- Kd [9]: 1.16 µM
- koff [9]: 0.0707 s⁻¹
- kon [9]: 60000 M⁻¹ s⁻¹

Binder: B2
- EC50 (read off the curve) (FLT3 on RS4;11 cells [10]): ~0.0001 µM
- fold decrease in Allophycocyanin (APC) MFI, an indicator of FLT3 expression, on RS4;11 cells (FLT3 on RS4;11 cells [11]): 25 fold
- Kd (hFLT3 receptor): 0.0223 µM
- koff (hFLT3 receptor): 0.00812 s⁻¹
- kon (hFLT3 receptor): 360000 M⁻¹ s⁻¹
